Measurements from the Human Domainome abundance scans (Beltran et al. 2025).
± gives the uncertainty stated by the source.

B1: Transitional endoplasmic reticulum ATPase, residues 26 to 106; numbered along this chain, P55072 (parent)
chain: LIVDEAINEDNSVVSLSQPKMDELQLFRGDTVLLKGKKRREAVCIVLSDDTCSDEKIRMNRVVRNNLRVRLGDVISIQPCP

Variants of: B1
Assay: abundance fitness (aPCA) (normalised: wild type 0, dead -1); higher = more abundant; growth selection in yeast, the domain comes from the species named
Details: Homo sapiens
With N11C the abundance fitness was -0.091 ± 0.059. N11I gave an abundance fitness of -0.024 ± 0.038. In the case of N11E, the abundance fitness is reported as 0.031 ± 0.069. With N11P the abundance fitness was -0.011 ± 0.071. In the case of N11K, the abundance fitness is reported as -0.084 ± 0.12. Variant N11S has an abundance fitness of 0.039 ± 0.051. Work on N11V yielded an abundance fitness of -0.067 ± 0.045. Variant N11Y has an abundance fitness of -0.079 ± 0.12. With N11A the abundance fitness was -0.105 ± 0.048. For N11L, the abundance fitness was -0.007 ± 0.053. For N11R, the abundance fitness was -0.042 ± 0.038. For N11H, the abundance fitness was 0.103 ± 0.089. For N11M, the abundance fitness was -0.029 ± 0.072. In the case of N11G, the abundance fitness is reported as -0.067 ± 0.04. N11F showed an abundance fitness of -0.208 ± 0.18. In the case of N11T, the abundance fitness is reported as -0.028 ± 0.066. N11W showed an abundance fitness of -0.26 ± 0.069. V3Q gave an abundance fitness of -0.891 ± 0.17. V3M showed an abundance fitness of -0.194 ± 0.093. V3G gave an abundance fitness of -0.811 ± 0.088. Work on V3F yielded an abundance fitness of -0.797 ± 0.21. V3D gave an abundance fitness of -0.529 ± 0.41. In the case of V3A, the abundance fitness is reported as -0.242 ± 0.066. Work on V3W yielded an abundance fitness of -0.952 ± 0.17. V3T showed an abundance fitness of -0.432 ± 0.097. Work on V3S yielded an abundance fitness of -0.773 ± 0.14. Work on V3P yielded an abundance fitness of -0.948 ± 0.31. Work on V3I yielded an abundance fitness of -0.037 ± 0.13. In the case of V3E, the abundance fitness is reported as -0.809 ± 0.17. V3L showed an abundance fitness of -0.708 ± 0.12. V3C gave an abundance fitness of -0.173 ± 0.13. In the case of V3R, the abundance fitness is reported as -0.992 ± 0.15. Work on V3K yielded an abundance fitness of -0.639 ± 0.23. E5I gave an abundance fitness of -0.045 ± 0.048. In the case of E5T, the abundance fitness is reported as -0.1 ± 0.058. Work on E5W yielded an abundance fitness of -0.051 ± 0.044. For E5Y, the abundance fitness was 0.048 ± 0.089. Variant E5F has an abundance fitness of 0.016 ± 0.084. Work on E5N yielded an abundance fitness of -0.018 ± 0.12. E5H gave an abundance fitness of -0.224 ± 0.1. E5G showed an abundance fitness of -0.032 ± 0.051. Work on E5D yielded an abundance fitness of 0.003 ± 0.11. E5L showed an abundance fitness of -0.107 ± 0.041. Work on E5P yielded an abundance fitness of -0.149 ± 0.051. E5M gave an abundance fitness of 0.042 ± 0.063. With E5V the abundance fitness was -0.068 ± 0.041. E5Q showed an abundance fitness of -0.124 ± 0.12. Work on E5C yielded an abundance fitness of -0.013 ± 0.054. E5S gave an abundance fitness of 0.029 ± 0.052. In the case of S12C, the abundance fitness is reported as -0.056 ± 0.07. S12T showed an abundance fitness of 0.082 ± 0.082. Work on S12F yielded an abundance fitness of -0.036 ± 0.095. S12D showed an abundance fitness of 0.019 ± 0.066. In the case of S12M, the abundance fitness is reported as 0.088 ± 0.093. Work on S12V yielded an abundance fitness of -0.067 ± 0.043. S12R showed an abundance fitness of -0.038 ± 0.04. With S12A the abundance fitness was 0.035 ± 0.048. Work on S12N yielded an abundance fitness of -0.086 ± 0.083. Work on S12P yielded an abundance fitness of -0.126 ± 0.065. With S12I the abundance fitness was -0.166 ± 0.11. S12G gave an abundance fitness of 0.029 ± 0.045. S12Q showed an abundance fitness of 0.093 ± 0.068. In the case of S12K, the abundance fitness is reported as -0.035 ± 0.065. Work on S12L yielded an abundance fitness of -0.019 ± 0.053. With S12Y the abundance fitness was -0.119 ± 0.099. Variant S12E has an abundance fitness of 0.039 ± 0.062. With S15R the abundance fitness was -0.001 ± 0.038. With S15W the abundance fitness was -0.091 ± 0.092. S15M gave an abundance fitness of -0.058 ± 0.079. Variant S15N has an abundance fitness of 0.08 ± 0.1. Work on S15T yielded an abundance fitness of 0.004 ± 0.067. S15V showed an abundance fitness of 0.07 ± 0.037. S15G showed an abundance fitness of 0.034 ± 0.032. For S15Q, the abundance fitness was 0.082 ± 0.053. S15D showed an abundance fitness of -0.674 ± 0.1. With S15E the abundance fitness was 0.008 ± 0.076. For S15Y, the abundance fitness was 0 ± 0.095. Variant S15F has an abundance fitness of 0.087 ± 0.11. S15C gave an abundance fitness of -0.006 ± 0.066. S15I gave an abundance fitness of 0.002 ± 0.077. In the case of S15P, the abundance fitness is reported as -0.591 ± 0.097. Work on S15H yielded an abundance fitness of -0.039 ± 0.09. For D10T, the abundance fitness was -0.01 ± 0.068. For D10A, the abundance fitness was -0.059 ± 0.041. With D10S the abundance fitness was -0.14 ± 0.061. In the case of D10N, the abundance fitness is reported as -0.228 ± 0.13. With D10M the abundance fitness was -0.054 ± 0.058. D10Q showed an abundance fitness of -0.072 ± 0.072. D10C showed an abundance fitness of -0.165 ± 0.099. D10E gave an abundance fitness of -0.159 ± 0.077. D10I gave an abundance fitness of -0.121 ± 0.044. D10W showed an abundance fitness of -0.189 ± 0.071. D10L gave an abundance fitness of -0.105 ± 0.042. For D10P, the abundance fitness was -0.02 ± 0.071. With D10R the abundance fitness was -0.158 ± 0.058. With D10K the abundance fitness was -0.007 ± 0.11. Variant D10Y has an abundance fitness of -0.096 ± 0.12. For D10H, the abundance fitness was 0.098 ± 0.13. Work on D10V yielded an abundance fitness of -0.14 ± 0.041. Work on L16Q yielded an abundance fitness of -0.584 ± 0.1. L16P gave an abundance fitness of -0.788 ± 0.13. For L16T, the abundance fitness was -0.793 ± 0.14. L16A gave an abundance fitness of -0.65 ± 0.062. For L16C, the abundance fitness was -0.083 ± 0.087. L16V showed an abundance fitness of -0.139 ± 0.043. L16G gave an abundance fitness of -0.895 ± 0.063. L16I gave an abundance fitness of -0.005 ± 0.075. With L16E the abundance fitness was -0.762 ± 0.15. In the case of L16W, the abundance fitness is reported as -0.912 ± 0.14. In the case of L16S, the abundance fitness is reported as -0.595 ± 0.072. In the case of L16N, the abundance fitness is reported as -0.766 ± 0.29. With L16K the abundance fitness was -0.783 ± 0.15. L16F showed an abundance fitness of -0.267 ± 0.085. A6I gave an abundance fitness of 0.002 ± 0.12. A6L showed an abundance fitness of 0.092 ± 0.051. With A6H the abundance fitness was 0.001 ± 0.084. In the case of A6N, the abundance fitness is reported as -0.004 ± 0.22. For A6P, the abundance fitness was 0.024 ± 0.087. For A6E, the abundance fitness was -0.107 ± 0.059. For A6S, the abundance fitness was 0.029 ± 0.061. A6K gave an abundance fitness of -0.154 ± 0.079. A6Y showed an abundance fitness of -0.404 ± 0.21. With A6T the abundance fitness was 0.046 ± 0.053. In the case of A6R, the abundance fitness is reported as -0.084 ± 0.053. A6V showed an abundance fitness of -0.133 ± 0.037. For A6C, the abundance fitness was -0.048 ± 0.077. Work on A6W yielded an abundance fitness of -0.006 ± 0.064. For A6D, the abundance fitness was -0.054 ± 0.09. A6Q gave an abundance fitness of 0.007 ± 0.073. In the case of A6F, the abundance fitness is reported as 0.093 ± 0.085. In the case of A6G, the abundance fitness is reported as 0.024 ± 0.044. For V13I, the abundance fitness was 0.053 ± 0.11. In the case of V13Q, the abundance fitness is reported as -0.112 ± 0.065. In the case of V13E, the abundance fitness is reported as -0.127 ± 0.066. For V13G, the abundance fitness was -0.06 ± 0.03. Work on V13P yielded an abundance fitness of -0.457 ± 0.088. Work on V13W yielded an abundance fitness of -0.006 ± 0.053. V13N gave an abundance fitness of -0.236 ± 0.12. In the case of V13K, the abundance fitness is reported as -0.183 ± 0.064. In the case of V13A, the abundance fitness is reported as -0.125 ± 0.043. Variant V13H has an abundance fitness of 0.053 ± 0.12. Work on V13C yielded an abundance fitness of 0.056 ± 0.11. V13D gave an abundance fitness of -0.103 ± 0.079. V13R showed an abundance fitness of -0.113 ± 0.046. For V13L, the abundance fitness was -0.095 ± 0.047. In the case of V13Y, the abundance fitness is reported as 0.044 ± 0.084. Variant V13M has an abundance fitness of -0.143 ± 0.083. Variant I7N has an abundance fitness of -0.193 ± 0.3. I7M showed an abundance fitness of 0.039 ± 0.066. For I7W, the abundance fitness was -0.003 ± 0.056. I7F showed an abundance fitness of 0.009 ± 0.099. Work on I7L yielded an abundance fitness of 0.048 ± 0.05. Variant I7Q has an abundance fitness of -0.17 ± 0.089. With I7E the abundance fitness was 0.127 ± 0.075. Work on I7R yielded an abundance fitness of -0.042 ± 0.044. In the case of I7Y, the abundance fitness is reported as -0.238 ± 0.14. With I7S the abundance fitness was -0.048 ± 0.061. I7G showed an abundance fitness of -0.011 ± 0.031. In the case of I7A, the abundance fitness is reported as -0.019 ± 0.051. Variant I7T has an abundance fitness of -0.099 ± 0.079. Work on I7C yielded an abundance fitness of -0.021 ± 0.1. Work on I7H yielded an abundance fitness of -0.15 ± 0.13. I7D showed an abundance fitness of 0.032 ± 0.12. Work on I7V yielded an abundance fitness of -0.07 ± 0.053. Work on I2L yielded an abundance fitness of -0.115 ± 0.055. For I2K, the abundance fitness was -0.006 ± 0.11. Variant I2Y has an abundance fitness of -0.418 ± 0.22.
